The test system of test [1] is Raw 264.7 cells. The experiment in a line: TRAP staining / osteoclast morphology of Raw 264.7 cells on peptide-coated tissue culture plastic. In kind it is cell-based. As to the method:
Raw 264.7 cells were cultured and passaged as previously described. Cell adhesion to OP1_Hyp and OP1_Pro was assessed as shown by Barrow et al.. Briefly, 48-well plates were coated with 10 µg/mL of OSCAR-binding peptides overnight at 4 °C. The excess peptide was then removed by washing with PBS before adding 1% BSA to block non-specific binding sites for 1 h at 25 °C. Raw 264.7 cells were then resuspended at a concentration of 2 × 10^5 cells/mL and added to the well. Cells were cultured with different concentrations of human RANKL (hRANKL) (catalogue number: 310-01 from Peprotech, London, UK) (0–100 ng/mL) for up to 5 days to assess the contribution of the OSCAR-binding peptides OP1_Hyp and OP1_Pro to the differentiation of Raw 264.7 cells to mature OCs.
After 5 days of post-culture, Raw 264.7 cells were fixed in 4% PFA for 15 min at room temperature. TRAP was stained following the manufacturer’s protocol and evaluated by light microscopy (ThermoFisher, Swindon, UK). Multinucleated TRAP+ cells containing more than three nuclei were scored as mature OCs.

Test [2] has as its system Raw 264.7 cells. As to conditions: cited from earlier work.

B1: hRANKL: human RANKL (hRANKL) (catalogue number: 310-01 from Peprotech, London, UK) (protein, UniProt O14788 69-317, looked up)
extracellular domain: YFRAQMDPNRISEDGTHCIYRILRLHENADFQDTTLESQDTKLIPDSCRRIKQAFQGAVQKELQHIVGSQHIRAEKAMVDGSWLDLAKRSKLEAQPFAHLTINATDIPSGSHKVSLSSWYHDRGWAKISNMTFSNGKLIVNQDGFYYLYANICFRHHETSGDLATEYLQLMVYVTKTSIKIPSSHTLMKGGSTKYWSGNSEFHFYSINVGGFFKLRSGEEISIEVSNPSLLDPDQDATYFGAFKVRDID
modifications: extracellular domain
For the molecule B1, the “Differentiation, 1 ng/mL hRANKL” value with Raw 264.7 cells [1] (5 days on TCP, 1 ng/mL hRANKL) is given as “No differentiation was observed”. In the test on Raw 264.7 cells [1] (5 days, 100 ng/mL hRANKL, TCP with OP1_Hyp or OP1_Pro, untreated cells 38.1 ± 8.8 µm), the “Average cell diameter of treated cells” value amounted to 273.9 ± 73.4 µm.

B2: RANKL: RANK ligand (RANKL), as used in cited studies (protein, UniProt O14788 140-317, looked up)
Tumor necrosis factor ligand …: IRAEKAMVDGSWLDLAKRSKLEAQPFAHLTINATDIPSGSHKVSLSSWYHDRGWAKISNMTFSNGKLIVNQDGFYYLYANICFRHHETSGDLATEYLQLMVYVTKTSIKIPSSHTLMKGGSTKYWSGNSEFHFYSINVGGFFKLRSGEEISIEVSNPSLLDPDQDATYFGAFKVRDID
B2: the “OSCAR and TRAP levels, 50 ng/mL RANKL only” value in the test on Raw 264.7 cells [2] (days 1-4, ref Lampiasi et al. [35]) is “increased significantly between days 1 and 2 of culture before decreasing sharply on days 3 and 4”. Further, in the test on Raw 264.7 cells [2] (ref Song et al. [29]), the “Lowest optimal concentration for osteoclastic cell formation” value was 30 ng/mL.

Values taken from article PMC10779143, “Collagen-like Osteoclast-Associated Receptor (OSCAR)-Binding Motifs Show a Co-Stimulatory Effect on Osteoclastogenesis in a Peptide Hydrogel System” (International Journal of Molecular Sciences, 2023).
